Two molecules from publication doi:10.1101/2023.08.08.549832 can be followed below.

A value given as a limit tells only on which side of the number the result lay.

Common to all, as to assay: FRET or BRET
A general note: BRET reads energy transfer from a luciferase to a nearby fluorophore.

The target in assay [1] is PTCH2-eGFP (not stated (printed entry Q9Y6C5 is human PTCH2)) (UniProt Q9Y6C5).
In assay [2] the target is PTCH1-eGFP (enhanced green fluorescent protein-tagged human PTCH1) (human) (UniProt Q13635).
Assay [3] has the same target. The source holds these as a separate data set.

Turning to “PTCH1-mCherry (from UniProt Q13635 1-1447) (receptor)”, the magnitude of GFP signal change against PTCH1 homodimers in assay [1] was 50 % lower. In addition, in assay [2], the net increase in GFP signal after mCherry photobleaching was above 10%.

B1: PTCH2-mCherry (receptor)
chain: MTRSPPLRELPPSYTPPARTAAPQILAGSLKAPLWLRAYFQGLLFSLGCGIQRHCGKVLFLGLLAFGALALGLRMAIIETNLEQLWVEVGSRVSQELHYTKEKLGEEAAYTSQMLIQTARQEGENILTPEALGLHLQAALTASKVQVSLYGKSWDLNKICYKSGVPLIENGMIERMIEKLFPCVILTPLDCFWEGAKLQGGSAYLPGRPDIQWTNLDPEQLLEELGPFASLEGFRELLDKAQVGQAYVGRPCLHPDDLHCPPSAPNHHSRQAPNVAHELSGGCHGFSHKFMHWQEELLLGGMARDPQGELLRAEALQSTFLLMSPRQLYEHFRGDYQTHDIGWSEEQASTVLQAWQRRFVQLAQEALPENASQQIHAFSSTTLDDILHAFSEVSAARVVGGYLLMLAYACVTMLRWDCAQSQGSVGLAGVLLVALAVASGLGLCALLGITFNAATTQVLPFLALGIGVDDVFLLAHAFTEALPGTPLQERMGECLQRTGTSVVLTSINNMAAFLMAALVPIPALRAFSLQAAIVVGCTFVAVMLVFPAILSLDLRRRHCQRLDVLCCFSSPCSAQVIQILPQELGDGTVPVGIAHLTATVQAFTHCEASSQHVVTILPPQAHLVPPPSDPLGSELFSPGGSTRDLLGQEEETRQKAACKSLPCARWNLAHFARYQFAPLLLQSHAKAIVLVLFGALLGLSLYGATLVQDGLALTDVVPRGTKEHAFLSAQLRYFSLYEVALVTQGGFDYAHSQRALFDLHQRFSSLKAVLPPPATQAPRTWLHYYRNWLQGIQAAFDQDWASGRITRHSYRNGSEDGALAYKLLIQTGDAQEPLDFSQLTTRKLVDREGLIPPELFYMGLTVWVSSDPLGLAASQANFYPPPPEWLHDKYDTTGENLRIPPAQPLEFAQFPFLLRGLQKTADFVEAIEGARAACAEAGQAGVHAYPSGSPFLFWEQYLGLRRCFLLAVCILLVCTFLVCALLLLNPWTAGLIVLVLAMMTVELFGIMGFLGIKLSAIPVVILVASVGIGVEFTVHVALGFLTTQGSRNLRAAHALEHTFAPVTDGAISTLLGLLMLAGSHFDFIVRYFFAALTVLTLLGLLHGLVLLPVLLSILGPPPEVIQMYKESPEILSPPAPQGGGLRWGASSSLPQSFARVTTSMTVAIHPPPLPGAYIHPAPDEPPWSPAATSSGNLSSRGPGPATG
For the molecule B1, the magnitude of GFP signal change against PTCH1 homodimers in assay [3] is 50 % lower.
